Results from article PMC8991485, “Protein purification strategies must consider downstream applications and individual biological characteristics” (Microbial Cell Factories, 2022).
Blank lines part the entries; values can stand above or below the molecule they belong to.

Legend:
[1] = biological target: wild-type recombinant soluble LLT1; assay: SEC; gel filtration of recombinant soluble LLT1 made in HEK293T; peak at 16 ml taken as the non-covalent dimer
[2] = biological target: cysteine-less mutant of Galectin-1 (UniProt P09382); assay: AUC; analytical ultracentrifugation (sedimentation) of Galectin-1 purified in reducing or non-reducing conditions
[3] = biological target: the molecule itself; assay: SEC; gel filtration of recombinant soluble LLT1 made in HEK293T; peak at 16 ml taken as the non-covalent dimer

stoichiometry N [1]: 2
Molecule: wild-type recombinant soluble LLT1 (domain or fragment)

stoichiometry N [2]: 2
Molecule: cysteine-less mutant of Galectin-1 (from UniProt P09382 1-135)

B1: soluble LLT1 H176C mutant (domain or fragment)
chain: QAACPESWIGFQRKCFYFSDDTKNWTSSQRFCDSQDADLAQVESFQELNFLLRYKGPSDHWIGLSREQGQPWKWINGTEWTRQFPILGAGECAYLNDKGASSARCYTERKWICSKSDIHV
notes: soluble fragment of the lymphocyte receptor LLT1 with H176C, which restores the disulfide Cys163-Cys176; also called second mutant; source: HEK293T cell line, purified (gel filtration)
stoichiometry N [3]: 2
